Patent publication US20230192837A1 (published 2023)

Tests used:
human TNFα [1] = molecular target: T1, human TNFα (human, UniProt P01375 57-233, limits assumed); assay: cell-based or functional assay
cynomolgus monkey TNFα = cynomolgus monkey TNFα (cynomolgus monkey, UniProt P79337 57-233, limits assumed); assay: cell-based or functional assay
human TNFα [2] = molecular target: T1, human TNFα; assay: cell-based or functional assay; remark: listed apart in the source
[3] = molecular target: membrane human TNFα (non-cleavable TNFα) expressed on CHO cells (human, UniProt P01375 1-233); assay: cell-based or functional assay
rhesus macaque TNFα = molecular target: T2, rhesus macaque TNFα (rhesus macaque, UniProt P48094 77-233); assay: antigen-down ELISA, TNFα coated on plate, anti-human kappa-AP detection
T2 construct: Bought (R&D Systems, Cat #1070-RM); also called rhesus macaque monkey TNFα
Description: Once the color developed (approximately 15-30 min), plates were read at 560 nm OD on a Molecular Device Spectramax plate reader and data was acquired using Softmax Pro 4.7 software. Data analysis was performed in GraphPad Prism.

Sequence of cynomolgus monkey TNFα (P79337 57-233 limits assumed, form in doubt): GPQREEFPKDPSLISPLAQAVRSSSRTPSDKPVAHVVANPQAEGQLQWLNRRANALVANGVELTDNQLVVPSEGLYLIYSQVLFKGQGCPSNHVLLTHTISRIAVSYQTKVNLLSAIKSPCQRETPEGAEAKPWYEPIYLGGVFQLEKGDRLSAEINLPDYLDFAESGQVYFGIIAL
T1 sequence (P01375 57-233 limits assumed, form in doubt): as the sequence (P79337 57-233 limits assumed, form in doubt) above, with K9R, P11L, V57L, T64R, N92T, L158R counted along it
T2 sequence (P48094 77-233 limits assumed): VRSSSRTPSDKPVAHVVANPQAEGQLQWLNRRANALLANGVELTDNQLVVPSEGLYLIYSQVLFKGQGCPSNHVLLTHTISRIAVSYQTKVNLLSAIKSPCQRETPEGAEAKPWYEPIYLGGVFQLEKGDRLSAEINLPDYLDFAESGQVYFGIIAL

% Inhibition of human TNFα-induced plasma CXCL1 in C57/B6 mice, dose 0.3 mg/kg (human TNFα [2]) [%] | % Inhibition of human TNFα-induced plasma CXCL1 in C57/B6 mice, dose 3 mg/kg (human TNFα [2]) [%] | EC50 (rhesus macaque TNFα) [µg/mL] | Binder | IC50 of inhibition of soluble human TNFα induced cell killing of L929 cells (human TNFα [1]) [µg/mL] | IC50 of inhibition of soluble cynomolgus monkey TNFα induced cell killing of L929 cells (cynomolgus monkey TNFα) [µg/mL] | IC50 of inhibition of membrane TNFα-induced cell killing of L929 cells [3] [µg/mL]
49.8 | 84.3 | – | Ab5 (antibody, human IgG1, kappa, V domains shown) VH: QVQLVQSGAEVKKPGASVKVSCKASGYTFTGYYMHWVRQAPGQGLEWMGWINPYTGGTKYAQKFQGRVTMTRDTSISTAYMELSRLRSDDTAVYYCARDLYGSSNYGMDVWGQGTTVTVSS VL: DIQMTQSPSSLSASVGDRVTITCQASQGIRNYLNWYQQKPGKAPKLLIYDASNLETGVPSRFSGSGSGTDFTFTISSLQPEDIATYYCQQYDKLPLTFGGGTKVEIKR | 0.22 | 0.03 | 0.2
57.2 | 92.6 | – | Ab4 (antibody, human IgG1, kappa, V domains shown) VH: QVQLVQSGAEVKKPGASVKVSCKASGYTFTGYYMHWVRQAPGQGLEWMGWINPYTGGTKYAQKFQGRVTMTRDTSISTAYMELSRLRSDDTAVYYCARDLYGSSNYGMDVWGQGTTVTVSS VL: not shown | 0.19 | 0.02 | –

The remaining lines, values behind:

Binder | % Inhibition of human TNFα-induced plasma CXCL1 in C57/B6 mice, dose 0.3 mg/kg (human TNFα [2]) [%] | % Inhibition of human TNFα-induced plasma CXCL1 in C57/B6 mice, dose 3 mg/kg (human TNFα [2]) [%] | EC50 (rhesus macaque TNFα) [µg/mL] | IC50 of inhibition of soluble human TNFα induced cell killing of L929 cells (human TNFα [1]) [µg/mL] | IC50 of inhibition of soluble cynomolgus monkey TNFα induced cell killing of L929 cells (cynomolgus monkey TNFα) [µg/mL] | IC50 of inhibition of membrane TNFα-induced cell killing of L929 cells [3] [µg/mL]
Ab3 (antibody, human IgG1, kappa, V domains shown) VH: QVQLVQSGAEVKKPGASVKVSCKASGYTFTGYYMHWVRQAPGQGLEWMGWINPYTGGTKYAQKFQGRVTMTRDTSISTAYMELSRLRSDDTAVYYCARDLYGSSNYGMDVWGQGTTVTVSS VL: not shown | 64.4 | 86.6 | – | 0.19 | 0.02 | –
Ab1 (antibody, human IgG1, kappa, V domains shown, Human IgG1 with kappa light chain, expressed in CHO cells; also called exemplified anti-human TNFα antibody Ab1) VH: QVQLVQSGAEVKKPGASVKVSCKASGYTFTGYYIHWVRQAPGQGLEWMGWINPYTGGTNYAQKFQGRVTMTRDTSISTAYMELSRLRSDDTAVYYCARDLYGSSNYGGDVWGQGTTVTVSS VL: not shown | 63 | 83.9 | 0.155 | 0.16 | 0.02 | –
Ab2 (antibody, human IgG1, kappa, V domains shown) VH: QVQLVQSGAEVKKPGASVKVSCKASGYTFTGYYIHWVRQAPGQGLEWMGWINPYTGGTNYAQKFQGRVTMTRDTSISTAYMELSRLRSDDTAVYYCARDLYGSSNYGMDVWGQGTTVTVSS VL: not shown | 46.5 | 82.1 | – | 0.13 | 0.02 | –
